Numbering of substitutions follows the chain as printed. Names may count otherwise. Blank lines part the entries; values can stand above or below the binder they belong to.
Key:
[1] = target: T1, Mouse latent myostatin (mouse, UniProt O08689 26-267; O08689 268-376); experiment: SPR 37C; KD pH 5.8 / KD pH 7.4
T1 construct: Latent form = complex of two propeptides and the mature dimer
T1 sequence 1: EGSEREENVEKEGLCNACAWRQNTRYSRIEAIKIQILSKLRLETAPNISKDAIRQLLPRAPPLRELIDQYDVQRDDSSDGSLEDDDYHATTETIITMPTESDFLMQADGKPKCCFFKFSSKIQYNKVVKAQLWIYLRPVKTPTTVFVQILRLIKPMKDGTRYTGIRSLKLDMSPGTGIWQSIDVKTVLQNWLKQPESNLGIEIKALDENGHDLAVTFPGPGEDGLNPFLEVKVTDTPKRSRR
T1 sequence 2: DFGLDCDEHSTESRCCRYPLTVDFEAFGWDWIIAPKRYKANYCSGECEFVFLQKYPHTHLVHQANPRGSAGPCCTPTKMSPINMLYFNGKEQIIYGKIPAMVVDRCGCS

[2] = target: T2, Cynomolgus monkey latent myostatin (cynomolgus monkey, UniProt Q95J86 25-266; Q95J86 267-375); experiment: SPR 37C; KD pH 5.8 / KD pH 7.4
T2 construct: Latent form = complex of two propeptides and the mature dimer; also called Cyno latent myostatin
T2 sequence 1: T1 sequence 1 with G2N, R5Q, E6K, A19T, R25K, Y26S, R59K, A107V, K140E, S173N
T2 sequence 2: T1 sequence 2

[3] = target: T3, Human latent myostatin (human, UniProt O14793 25-266; O14793 267-375); experiment: SPR 37C; KD pH 5.8 / KD pH 7.4
T3 construct: also called human myostatin latent form
T3 sequence 1: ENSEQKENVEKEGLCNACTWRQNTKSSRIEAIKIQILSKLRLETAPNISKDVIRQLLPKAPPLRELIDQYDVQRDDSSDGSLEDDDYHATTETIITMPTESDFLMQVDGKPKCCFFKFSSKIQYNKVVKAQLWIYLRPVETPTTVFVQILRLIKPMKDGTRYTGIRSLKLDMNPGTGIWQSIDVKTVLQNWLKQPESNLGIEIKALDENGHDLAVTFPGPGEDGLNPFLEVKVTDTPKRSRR
T3 sequence 2: T1 sequence 2

[4] = target: T4, cynomolgus monkey FcγRIIIaS extracellular domain, C-terminal His-tag (cynomolgus monkey, UniProt Q8SPW2 21-206 at identity 1.00)); experiment: SPR (BIACORE) 25C, antibody captured, FcgR as analyte
T4 construct: also called cyno FcγRIIIaS; FcgRIIIaS
T4 chain: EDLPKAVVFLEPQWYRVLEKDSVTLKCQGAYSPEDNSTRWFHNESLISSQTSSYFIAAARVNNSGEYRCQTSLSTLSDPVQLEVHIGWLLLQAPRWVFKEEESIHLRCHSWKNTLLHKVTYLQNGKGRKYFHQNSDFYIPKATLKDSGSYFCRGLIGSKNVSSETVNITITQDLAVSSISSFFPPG
Method: (§1) The kinetic analysis of interactions between these antibodies and FcγR was carried out using BIACORE® T200 or BIACORE® 4000 (GE Healthcare). HBS-EP+ (GE Healthcare) was used as the running buffer, and the measurement temperature was set to 25° C. A chip produced by immobilizing Protein A. Protein A/G or mouse anti-human IgG kappa light chain (BD Biosciences) onto a Series S Sensor Chip CM4 or CM5 (GE Healthcare) by the amine-coupling method was used. […] After the measurement, the antibody captured on the chip was washed off by allowing reaction with 10 mM glycine-HCl, pH1.5 and 25 mM NaOH so that the chip was regenerated and used repeatedly. The sensorgrams obtained as measurement results were analyzed by the 1:1 Langmuir binding model using the BIACORE® Evaluation Software to calculate the binding rate constant ka (L/mol/s) and dissociation rate constant kd (l/s), and the dissociation constant KD (mol/L) was calculated from these values. […] Regarding such interactions, KD values were calculated using the following 1:1 binding model described in BIACORE® T100 Software Handbook BR1006-48 Edition AE.

[5] = target: T5, human FcγRIIaH extracellular domain, C-terminal His-tag (human, UniProt P12318 34-217); experiment: as above
T5 construct: also called human FcγRIIa (type H); FcgRIIaH
T5 sequence: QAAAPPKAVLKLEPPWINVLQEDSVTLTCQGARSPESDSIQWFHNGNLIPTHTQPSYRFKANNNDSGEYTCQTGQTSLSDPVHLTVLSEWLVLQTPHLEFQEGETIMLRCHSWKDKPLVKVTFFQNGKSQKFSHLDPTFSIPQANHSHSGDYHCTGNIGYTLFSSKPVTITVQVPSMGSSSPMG
Method: as §1

[6] = target: T4, cynomolgus monkey FcγRIIIaS …; experiment: SPR (BIACORE) 25C, antibody captured, FcgR as analyte; weak binding, KD by Equation 2
Method: as §1
(§2) The behavior of interacting molecules according to the 1:1 binding model on BIACORE® can be described by Equation 1: Req=C·R max/(KD+C)+RI, wherein, Req is a plot of steady-state binding levels to analyte concentration. […]

[7] = target: T5, human FcγRIIaH extracellular domain, …; experiment: as above
Method: as §1, §2

ratio of KD at pH 5.8/pH 7.4 [1]: 76 | ratio of KD at pH 5.8/pH 7.4 [2]: 76 | ratio of KD at pH 5.8/pH 7.4 [3]: 119 | Kd [4]: 0.42 µM | Kd [5]: 0.93 µM
B1: MS_M103205H795-SG1/M103202L889-SK1 (antibody, human IgG1, kappa)
heavy: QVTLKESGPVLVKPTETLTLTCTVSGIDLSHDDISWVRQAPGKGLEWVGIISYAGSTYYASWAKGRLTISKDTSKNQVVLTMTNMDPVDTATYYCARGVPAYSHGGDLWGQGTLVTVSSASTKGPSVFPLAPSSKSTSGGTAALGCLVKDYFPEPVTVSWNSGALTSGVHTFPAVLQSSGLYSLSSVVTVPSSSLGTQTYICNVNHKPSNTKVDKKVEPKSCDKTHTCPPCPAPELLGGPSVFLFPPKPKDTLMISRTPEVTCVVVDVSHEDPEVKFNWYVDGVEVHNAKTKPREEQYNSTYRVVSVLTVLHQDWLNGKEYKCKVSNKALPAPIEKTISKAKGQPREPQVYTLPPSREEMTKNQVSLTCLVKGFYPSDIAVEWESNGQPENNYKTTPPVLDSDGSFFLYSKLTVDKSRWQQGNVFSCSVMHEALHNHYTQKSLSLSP
light: DIVMTQSPATLSLSPGERATLSCTSSQSVYHANWLSWFQQKPGQPPKLLIYWASTLAYGVPSRFSGSGSGTDFTLTISSLQPEDAATYYCAGGYGGGRYAFGQGTKVEIKRTVAAPSVFIFPPSDEQLKSGTASVVCLLNNFYPREAKVQWKVDNALQSGNSQESVTEQDSKDSTYSLSSTLTLSKADYEKHKVYACEVTHQGLSSPVTKSFNRGEC
notes: also called MS1032LO06-SG1

Kd [6]: 100 µM | Kd [7]: 75 µM
B2: M103205H795-MY009/M103202L889-SK1 (antibody, human IgG1, kappa)
heavy: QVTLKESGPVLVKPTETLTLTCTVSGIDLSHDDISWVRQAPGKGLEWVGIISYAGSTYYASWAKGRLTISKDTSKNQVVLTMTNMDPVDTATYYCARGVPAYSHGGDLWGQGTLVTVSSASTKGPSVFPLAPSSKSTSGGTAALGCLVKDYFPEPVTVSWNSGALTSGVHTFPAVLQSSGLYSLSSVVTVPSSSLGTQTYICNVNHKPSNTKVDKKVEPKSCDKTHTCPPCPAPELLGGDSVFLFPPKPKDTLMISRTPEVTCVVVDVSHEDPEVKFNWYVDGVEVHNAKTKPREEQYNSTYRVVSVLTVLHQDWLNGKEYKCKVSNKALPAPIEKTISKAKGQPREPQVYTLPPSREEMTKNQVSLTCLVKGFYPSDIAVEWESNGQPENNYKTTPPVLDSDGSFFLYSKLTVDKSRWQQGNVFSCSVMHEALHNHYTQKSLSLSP
light: B1 light
notes: CH MY009 = SG1 with P238D (EU numbering); also called MS1032LO06-MY009
